Assay results taken from paper PMC10728118, “Mutant GGGGCC RNA prevents YY1 from binding to Fuzzy promoter which stimulates Wnt/β-catenin pathway in C9ALS/FTD”.

How the values were obtained:
[1] = molecular target: His-YY1 ZF1+ZF2 del352-end (UniProt P25490); assay: EMSA; conditions: EMSA: 10 mM HEPES-KOH, 12 mM Tris-HCl, 50 mM NaCl, 50 mM KCl, 5 mM MgCl2, 100 uM ZnCl2, 0.01% NP-40, 5% glycerol, 2.5 mM DTT, pH 7.4, 25 C, 2.5 nM probe; FP: …
[2] = molecular target: His-YY1 ZF1+ZF2+ZF3 del382-end (UniProt P25490); assay: EMSA; conditions: EMSA: 10 mM HEPES-KOH, 12 mM Tris-HCl, 50 mM NaCl, 50 mM KCl, 5 mM MgCl2, 100 uM ZnCl2, 0.01% NP-40, 5% glycerol, 2.5 mM DTT, pH 7.4, 25 C, 2.5 nM probe; FP: …
His-YY1 full-length [3] = molecular target: T1, His-YY1 full-length (UniProt P25490 1-414); assay: EMSA; EMSA: 10 mM HEPES-KOH, 12 mM Tris-HCl, 50 mM NaCl, 50 mM KCl, 5 mM MgCl2, 100 uM ZnCl2, 0.01% NP-40, 5% glycerol, 2.5 mM DTT, pH 7.4, 25 C, 2.5 nM probe; FP: 50 mM Tris-HCl, 100 mM KCl, 2.5 mM MgCl2, 100 uM ZnCl2, pH 7.4, 25 C; conditions: protein: recombinant, tags: His, label: Cy5
His-YY1 full-length [4] = molecular target: T1, His-YY1 full-length; assay: fluorescence polarisation; EMSA: 10 mM HEPES-KOH, 12 mM Tris-HCl, 50 mM NaCl, 50 mM KCl, 5 mM MgCl2, 100 uM ZnCl2, 0.01% NP-40, 5% glycerol, 2.5 mM DTT, pH 7.4, 25 C, 2.5 nM probe; FP: 50 mM Tris-HCl, 100 mM KCl, 2.5 mM MgCl2, 100 uM ZnCl2, pH 7.4, 25 C; conditions: protein: recombinant; tags: His; label: FAM

T1 sequence (P25490 whole entry): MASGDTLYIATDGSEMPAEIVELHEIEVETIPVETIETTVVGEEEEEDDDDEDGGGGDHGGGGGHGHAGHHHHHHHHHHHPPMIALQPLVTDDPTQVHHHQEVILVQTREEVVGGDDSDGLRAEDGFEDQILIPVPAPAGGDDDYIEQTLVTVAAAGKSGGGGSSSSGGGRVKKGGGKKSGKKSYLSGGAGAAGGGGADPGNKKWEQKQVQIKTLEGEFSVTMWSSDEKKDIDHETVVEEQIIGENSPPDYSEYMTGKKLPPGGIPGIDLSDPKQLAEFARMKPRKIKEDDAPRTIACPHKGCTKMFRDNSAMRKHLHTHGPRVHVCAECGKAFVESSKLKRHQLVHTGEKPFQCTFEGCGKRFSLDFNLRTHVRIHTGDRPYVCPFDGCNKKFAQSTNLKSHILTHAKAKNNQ
Chain of His-YY1 ZF1+ZF2 del352-end (P25490 1-351): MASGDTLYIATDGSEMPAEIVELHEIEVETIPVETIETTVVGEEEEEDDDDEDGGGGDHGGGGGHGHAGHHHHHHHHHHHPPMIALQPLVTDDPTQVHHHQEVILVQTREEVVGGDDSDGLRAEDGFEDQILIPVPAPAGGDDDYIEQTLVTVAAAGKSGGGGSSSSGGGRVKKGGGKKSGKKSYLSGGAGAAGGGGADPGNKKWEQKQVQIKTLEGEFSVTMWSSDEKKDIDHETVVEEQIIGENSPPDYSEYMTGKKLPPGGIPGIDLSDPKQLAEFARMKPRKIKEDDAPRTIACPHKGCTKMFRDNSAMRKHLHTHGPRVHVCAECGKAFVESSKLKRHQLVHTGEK
Chain of His-YY1 ZF1+ZF2+ZF3 del382-end (P25490 1-381): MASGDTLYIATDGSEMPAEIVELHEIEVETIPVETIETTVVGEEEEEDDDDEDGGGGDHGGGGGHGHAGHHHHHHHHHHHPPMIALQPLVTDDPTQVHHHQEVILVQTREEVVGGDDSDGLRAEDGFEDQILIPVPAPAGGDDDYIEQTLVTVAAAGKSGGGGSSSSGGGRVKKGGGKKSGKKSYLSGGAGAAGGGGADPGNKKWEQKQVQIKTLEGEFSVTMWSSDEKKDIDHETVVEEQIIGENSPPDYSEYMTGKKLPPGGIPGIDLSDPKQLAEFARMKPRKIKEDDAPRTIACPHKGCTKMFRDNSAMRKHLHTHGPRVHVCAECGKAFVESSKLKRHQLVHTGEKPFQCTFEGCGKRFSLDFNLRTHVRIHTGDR

For “GGGGCCGGGGCCGGGGCCGGGGCCGGGGCCGGGGCCGGGGCCGGGGCC [(GGGGCC)8 RNA]”, the Kd [1] was 129 nM and the Kd [2] was 59 nM.

B1: FuzzyYY1-b DNA (dsDNA)
DNA 1: AGTCCTAAATGGGGGAGGAG
DNA 2: CTCCTCCCCCATTTAGGACT
B1 gave a Kd (His-YY1 full-length [3]; blunt) of 405 ± 45.9 nM.

B2: AAV P5 DNA (dsDNA)
DNA 1: AGGGTCTCCATTTTGAAGCG
DNA 2: CGCTTCAAAATGGAGACCCT
B2: binds (His-YY1 full-length [3]; blunt).

GGGCGCGGCGCGCGGGCCGGGGCGGGCGCGCGGGCGGGGCGCGGCGCG (ssRNA) [randomised GC-rich RNA] showed a Kd (His-YY1 full-length [3]) of 201 ± 17.9 nM.

B3: PP7 RNA (ssRNA)
RNA: UAAAGUAAGAUAAGGCAAGACAAGGUAAAACGGAACAGAACCGAAGGGAAGAGAAGCAAAGCGAAAGGAAAUAAACAAAAGAAAAAUUCGUAGAAUUCCG
B3: binds (His-YY1 full-length [3]).

Work on GGGGCCGGGGCCGGGGCCGGGGCCGGGGCCGGGGCCGGGGCCGGGGCC (ssRNA) [(GGGGCC)8 RNA] yielded a Kd (His-YY1 full-length [3]) of 46.8 ± 3.42 nM.

B4: FuzzyYY1-a DNA (dsDNA)
DNA 1: TGGGCAACATGGCGACACCC
DNA 2: GGGTGTCGCCATGTTGCCCA
B4 showed a Kd (His-YY1 full-length [3]; blunt) of 242 ± 21.7 nM.

For CGGGGCCGGGGCCGGGGCCGGGGCCGGGGCCGGGGCCGGGGCCGGGGCCG (ssRNA) [FAM-(GGGGCC)8 RNA], the Kd (His-YY1 full-length [4]) was 45.3 ± 3.67 nM.
